This is an account of results in patent US20160200813A1 (AbbVie / Abbott, published 2016).

Experiment [1] concerns the target T1, Human LRP-8 (isoform 3) expressed on cells (human, UniProt Q14114 33-963).
T1 construct: also called hLRP-8; huLRP-8
Briefly: cell-based binding assay, hLRP8.

Experiment [2] concerns the target T2, Cynomolgus monkey LRP-8 expressed on HEK293 cells (cynomolgus monkey).
T2 construct: whole, on cells; also called cyno LRP-8; cLRP-8
The experiment can be described thus: cell-based binding assay, cynoLRP8.

In experiment [3] the target is T2, Cynomolgus monkey LRP-8 expressed on …. Briefly: cell-based binding on CYNO LRP8-HEK293, supernatant 1:5.
Experiment [4] shares this target. The experiment can be described thus: cell-based binding on CYNO LRP8-HEK293, supernatant 1:25.
The target is the same in experiment [5]. Briefly: cell-based binding on CYNO LRP8-HEK293, supernatant 1:125.
For experiment [6], the target named is T1, Human LRP-8 (isoform 3) expressed on …. Briefly: cell-based or functional assay.
In experiment [7] the target is T2, Cynomolgus monkey LRP-8 expressed on …. The experiment can be described thus: cell-based ECL-MSD, 10 ug/ml Ab, cyno-LRP-8-HEK293. How it is done: (§1) A cell-based ECL-MSD binding assay was used to determine antibody affinity. HEK293 cells overexpressing human, monkey or mouse LRP-8 were added onto MSD 96-well plate (MSD Cat# L15XB-3/L11XB-3) and incubated at 37° C. for one hour. Cells were blocked using 15% FBS (Hyclone, Thermo Scientific Cat# SH300700.03) at RT for 30 minutes with mild agitation. Plates were washed with DPBS three times and Abs or DVD-Ig binding proteins were added to the well. After incubation at RT for one hour, plates were washed with DPBS and goat anti-human or anti-mouse Sulfo TAG (MSD Cat#R32AJ-1) was added. Plates were incubated at RT for one hour, washed with DPBS and immersed in MSD read buffer (MSD Cat#R92TD-2) before reading on a MSD SECTOR Imager 6000. EC50 values were obtained using Xlfit4 software system.

Experiment [8] deals with T1, Human LRP-8 (isoform 3) expressed on …. Briefly: cell-based ECL-MSD, 10 ug/ml Ab, human_LRP-8_HEK293. The method, then:
as §1

Experiment [9] shares this target. The experiment can be described thus: cell-based MSD-ECL binding on cells overexpressing human LRP-8 variant 3 (hLRP8 assay). The method, then:
as §1

Experiment [10] has as its target T2, Cynomolgus monkey LRP-8 expressed on …. Briefly: cell-based MSD-ECL binding on cells overexpressing cyno LRP-8 variant 1 (cynoLRP8 assay). The method, then: as §1
Experiment [11] shares this target. The experiment can be described thus: FACS, cyno LRP8 cells. (In general: In flow cytometry, cells or beads pass a laser one at a time.)
Experiment [12] concerns the target T3, CR1 cyclic peptide of human LRP-8 (human, disulfide 1-13).
T3 construct: also called CR1 peptide; conjugated human LRP-8 CR1 peptide
T3 peptide: CEKDQFQSRNERCIPSVWR-{Lys(Aoa)-NH2}
The experiment can be described thus: ELISA using CR1 peptide.

Several values for one entry are separate records, joined by “and”; a condition that tells them apart may be missing. Equal entries are not always repeated. *1 amine or outer side, *2 acyl side, *3 side chain or, on linkers, in order; H or OH if unused. Bridges are numbered along the chain shown (N, C = ends). Where no end group is shown, it is not given here. Lys(Aoa) = NOCC(=O)NCCCC[C@H](N[*:1])C(=O)[*:2]

T1 sequence (Q14114 other isoform, or with tags, fused parts or gaps limits assumed): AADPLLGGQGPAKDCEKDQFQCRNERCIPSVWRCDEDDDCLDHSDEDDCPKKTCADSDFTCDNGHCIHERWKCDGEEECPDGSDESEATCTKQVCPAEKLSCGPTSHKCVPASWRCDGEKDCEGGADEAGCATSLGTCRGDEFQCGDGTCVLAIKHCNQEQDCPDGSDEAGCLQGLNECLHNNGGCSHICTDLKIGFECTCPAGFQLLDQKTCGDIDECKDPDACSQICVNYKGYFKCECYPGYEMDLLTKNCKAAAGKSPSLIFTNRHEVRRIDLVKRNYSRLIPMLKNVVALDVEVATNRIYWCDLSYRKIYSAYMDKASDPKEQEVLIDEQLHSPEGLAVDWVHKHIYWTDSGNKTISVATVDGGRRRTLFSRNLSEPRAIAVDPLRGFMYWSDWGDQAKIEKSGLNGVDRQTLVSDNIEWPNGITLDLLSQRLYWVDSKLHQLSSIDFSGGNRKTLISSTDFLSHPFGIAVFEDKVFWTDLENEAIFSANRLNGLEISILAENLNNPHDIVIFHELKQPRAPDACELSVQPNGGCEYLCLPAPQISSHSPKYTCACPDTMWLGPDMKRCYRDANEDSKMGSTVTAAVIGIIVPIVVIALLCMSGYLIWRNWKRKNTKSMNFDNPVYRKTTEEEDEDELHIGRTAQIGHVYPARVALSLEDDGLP

B1: anti-LRP-8 BGK-7A11 chimeric antibody (CL-105959) (antibody, V domains shown)
VH: QVTLKESGPGILQPSQTLSLTCTFSGFSLSTYGMGVGWIRQPAGTGLEWLANIWWDDDKYYNPSLKNRLTISKDTSNNQVFLKITNVDTADTATYYCARTTKPYYFDYWGQGVMVTVSS
VL: HFVLAQPNSVSTNLGSTVKLSCKRSTGNSGSNYVNWYQQYEGRSPTTMIYRDDKRPDGVPDRFSGSIDRSSNSALLTINNVQTEDEADYFCQSYSSGINIFGGGTKLTVL
In the case of B1, the 50% effective concentration (EC50) (in general, the concentration giving half of the maximal effect) in [1] turned out to be 0.12 nM; in experiment [2] it was 0.53 nM.

B2: anti-LRP-8 BGK-7F7 chimeric antibody (CL-105960) (antibody, V domains shown)
VH: QVTLKESGPGILQPSQTLSLTCTFSGFSLSTYGLGVGWIRQPSGKGLEWLANIWWDDAKYYNPSLKNRLTISKDTSNNQAFLKIPNVDTADTARYYCARTTKPYYFDYWGQGVMVTVSS
VL: HFVLAQPNSVSTNLGSTVKLSCKRSTANIGSNYVNWYQQHEGRSPTTLIYRDDRRPDGVPDRFSGSIDRSSNSALLTINNVQTEDEADYFCQSYSSGINIFGGGTKLTVL
Consider B2, for which the concentration giving a half-maximal response (EC50) came to 0.11 nM in [1] and 0.35 nM in [2].

B3: anti-LRP-8 BGK-6B5-2 chimeric antibody (CL-105969) (antibody, V domains shown)
VH: QVSLQESGPGILQPSQTLSLTCTFSGFSLSTFGMGVGWIRQPSGKGLEWLANIWWDDDKYYNPSLKNRLTISKDTSNNQAFLKITNVDTADTATYYCARTAKPYYFDYWGHGVMVTVSS
VL: HFVLAQPNSVSTNLGNTVKLSCKRSTGNIGSNYVNWYQQHEGRSPTTLIYRDDKRPDGVPDRFSGSFDRSSNSALLTINNVQTEDEADYFCQSYNSGINFFGGGTKLTVL
In the case of B3, the results for the 50% effective concentration (EC50) in [1] and in experiment [2] were 0.15 nM and 0.51 nM, respectively.

B4: anti-LRP-8 BGK.2C8.E6.D3 [r/m IgG2a/K] (antibody, V domains shown)
VH: QVTLKESGPGILQPSQTLSLTCTFSGFSLNTYGMGVGWVRQPSGKGLEWLANIWWDDDKFYNPSLKNRLTVSKDTSNNQAFLRITNGDTADTATYFCARILGEDIGGALDAWGQGTSVTVSS
VL: DTVLTQSPALAVSPGERVSISCRASEGVNSYMHWYQQNPGQQSKLLIYRTSNLASGVPARFGGSGSGTDFTLTIDPVEADDTATYFCQQSWNDPPTFGGGTKLELK
Take B4: the EC50 in [1] is 0.1 nM; in experiment [2] it was 0.31 nM. Besides, the entries for the “fold over isotype control” value in experiment [3], in experiment [4] and in experiment [5] were 5.16 fold, 13.8 fold and 13.7 fold, respectively.

B5: anti-LRP-8 antibody ab58216 (mFc) (antibody, V domains shown)
VH: EVHLQQSGPEVVKPGASVKISCKASGYIISGYFLNWVKQSHGKSLEWVGRINPYSGDTFFNQKFKGKATLTVDKSSNTAHMELRSLTSEDSAVFYCAREDIGRFAYWGQGTLVTVSA
VL: DVLMTQTPLSLPVSLGDQASISCRSSQTIVHSNGNTYLEWYLQKPGQSPKLLIYKVSNRFSGVPDRFSGSGSGTDFTLKISRVEAEDLGVYYCFQGSHAPPTFGGGTKLEIK
notes: Mouse Fc form
Turning to B5, in [6], the “Endocytosis, fold over IgG control” value was determined as 2.6 fold and the “Transcytosis, fold over IgG control” value was found to be 1.53 fold. For the same molecule, in experiment [7], the “fold over mIgG control” value came out at 1.2 fold. Moreover, the “fold over mIgG control” value in [8] came to 17.3 fold.

B6: anti-LRP-8 ML201-2B4.2B1.2H10 murine antibody (muFc) (antibody, V domains shown)
VH: DVKLVASGGGLVKPGGSLKLSCAASGFTLSRYAMSWVRQTPEKRLEWVAYIRNGGDYIYYADTVKGRFTISRDNARNTLYLQMSSLKSEDTAMYYCTREGSYYNFDYWGQGTTLTVSS
VL: DVLMTQTPLSLPVSLGDQASISCRSSQSIVHSNGNTYLEWYLQKPGQSPNLLIFKVSNRFSGVPDRFIGSGSGTDFTLKISRVEAEDLGVYYCFQGSHVPWTFGGGTKLEIK
notes: Mouse Fc form; also called ML201-2B4.2B1.2H10 muFc; CL-33867
B6: in experiment [6], the “Endocytosis, fold over IgG control” value was found to be 1.8 fold. Besides, the “Transcytosis, fold over IgG control” value in experiment [6] stood at 1.44 fold. Moreover, the “fold over mIgG control” value amounted to 2.8 fold in experiment [7] and 14.2 fold in [8].

B7: anti-LRP-8 BGK-2C8.8C antibody (antibody, V domains shown)
VH: EVQLVESGGGLVQPGRSLKLSCAASGFTVSDYYMAWVRQAPKKGLEWVASISYEGSSTYYGDSVKGRFTISRDNAKSILYLQMNSLRSEDTATYYCARPLRYYGYNYRFAYWGQGTLVTVSS
VL: DIQMSQSPPVLSASVGDRVTLSCKASQNIHKNLDWYQQKHGEAPKLLIYYTDNLQTGIPSRFSGSGSGTDYTLTISSLQPEDVATYYCYQYNSGPTFGAGTKLELQ
As for B7, the half-maximal effective concentration (EC50) was 2.62 nM in [1]; 0.82 nM in experiment [2]; 0.55 µg/mL and 2.75 nM in experiment [9]; 0.0881 µg/mL and 0.44 nM in experiment [10].

B8: anti-LRP-8 BGK-2H4 chimeric antibody (CL-105945) (antibody, V domains shown)
VH: EVQLVESGGGLVQPGRSMKLSCAASGFTFSSFPMAWVRQAPTKGLEWVATVSTRGGHTYYRDSVKGRFTISRDNAKNTLYLQMNSLRSEDTATYYCIREGTSLFAYWGQGTLVTVSS
VL: DIQMTQSPPSLSASLGETVSIECLASEDISNYLAWYQQKPGKSPQLLIYYANSLEDGVPSRFSGSGSGTQYSLKISNMQPEDEGVYHCQQGYNYPYTFGAGTKLELK
As for B8, the figures for the EC50 in [1] and in experiment [2] were 0.21 nM and 1.08 nM, respectively.

B9: anti-LRP-8 antibody CL-135325 (antibody, V domains shown)
VH: EVQLVQSGGGLVQPGGSLRLSCAASGFTFSIYAMSWVRQAPGKGLEWVSVISCSAGSTYYADSVKGRFTISRDNSKNTLYLQMNSLRAEDTAVYYCARHSVHEEFPFDVWGQGTLVTVSS
VL: DIQMTQSPSSLSASVGDRVTITCRASQSIGSYLNWYQQKPGKAPKLLIYAASSLQSGVPSRFSGSGSGTDFTLTISSLQPEDFATYYCQQSYIPPLTFGGGTKVEIK
Consider B9, for which the “FACS (ratio +/-)” value in experiment [11] was 16.5 ratio. In [12], this molecule had an OD450 of 0.17 OD450.

B10: anti-LRP-8 BGK-9D10-2 antibody (CL-105967) (antibody, V domains shown)
VH: EVQLVESGGGLVQSGRSLKLSCAASGFTFSNYYMAWVRQAPKKGLEWVATITTSGSRSFYPDSVKGRFTISRDNAKSSLYLQINSLKSEDTATYYCARRGPLGYFDHWGRGVMVTVSS
VL: DIQMTQSPPSLPASLGDKVTITCQASQNINKYIAWYQQKPGKAPRLLIRFTSTLESDTPSRFSGSGSGRDYSFSISNVESEDFASYYCLHYDNLPPWTFGGGTKLELK
notes: also called BGT-9D10-2
In the case of B10, the EC50 in experiment [1] was 2.29 nM; in [2], 0.64 nM; in experiment [9] it was 0.108 µg/mL and 0.54 nM; in experiment [10], 0.12 µg/mL and 0.6 nM.

B11: anti-LRP-8 ML201-8F3.3D7 murine antibody (muFc) (antibody, V domains shown)
VH: EVQLVESGGDLVKPGGSLKLSCAASRFTFSNFGMSWVRQTPDKRLEWVATISSGGRYTYYPDSVKGRFTISRDNAKNTLYLQMSSLRSEDTAMYYCARDYLYAMDYWGQGTSVTVSS
VL: DVVMTQTPLSLPVSLGDQASISCRSSQSLVYSNGNTYLHWYLQKPGQSPKVLMYKVSNRFSGVSDRFSGSGSGTDFTLKISRVEAEDLGVYFCSQSTHVPLTFGAGTKLELK
notes: Mouse Fc form; also called ML201-8F3-3D7 muFc; CL-33866
As for B11, in experiment [6], the “Endocytosis, fold over IgG control” value was 1.6 fold and the “Transcytosis, fold over IgG control” value was found to be 1.08 fold. In addition, in [7], the “fold over mIgG control” value turned out to be 5.2 fold. The “fold over mIgG control” value in experiment [8] was 13.6 fold.

B12: chimeric anti-LRP-8 ML201-8F3.3D7 antibody (antibody, V domains shown)
VH: EVQLVESGGDLVKPGGSLKLSCAASRFTFSNFGMSWVRQTPDKRLEWVATISSGGRYTYYPDSVKGRFTISRDNAKNTLYLQMSSLRSEDTAMYYCARDYLYAMDYWGQGTSVTVSS
VL: DVVMTQTPLSLPVSLGDQASISCRSSQSLVYSNGNTYLHWYLQKPGQSPKVLMYKVSNRFSGVSDRFSGSGSGTDFTLKISRVEAEDLGVYFCSQSTHVPLTFGAGTKLELK
notes: also called ML201.8F3.3D7 hFc; CL-33866
As for B12, in experiment [1], the half-maximal effective concentration (EC50) was found to be 0.16 nM.

B13: anti-LRP-8 BGK.6E3.F4 [r/m IgG2a/K] (antibody, V domains shown)
VH: EVQLVESGGGLVQPGKSLKLSCAASGFTFSDYNMAWVRQAPKKGLEWVATIMYDGSRTFYRDSVKGRYTFSRDNAKSTLYLQMDSLRSEDTATYYCATGRNWFAYWGQGTLVTVSS
VL: DIIMTQSPSSLAVSAGETVTINCKSSQSLLSSGKQKNYLAWYQQKPGQSPKLLIYLASTRESGVPDRFIGSGSGTDFTLTISSMQAEDLAIYYCQQHYDTPLTFGSGTKLEIK
notes: Rat variable domains on mouse IgG2a/kappa
B13: the half-maximal effective concentration (EC50) in experiment [1] amounted to 0.11 nM; in experiment [2], 0.25 nM. The “fold over isotype control” value is 0.41 fold in experiment [3], 1.02 fold in experiment [4] and 0.87 fold in experiment [5].

B14: anti-LRP-8 BGK.5D10.E4 [r/m IgG2a/K] (antibody, V domains shown)
VH: QVQLRETGPDLVQPTQTLSLTCTVSGFSLTNYPVQWVRQPPGSGLEWLGIMWPSGAADFNPALKSRLSISRDTSKSQFFLRMDNLQTDDTAIYFCARGRGYSSPYAMDAWGQGTSVTVSS
VL: DIQMTQSPASLSASLGETVSIECLASEDIYNNLAWYQQKPGKSPHLLIHFTSNLQDGVPSRFSGSGSGTQYSLKINSLESEDGATYFCLQDSEYPLTFGSGTKLEIK
notes: as for B13
As to B14, the concentration giving a half-maximal response (EC50) in [1] was found to be 0.24 nM; in experiment [2] it was 0.77 nM. The “fold over isotype control” value in experiment [3] is 5.85 fold; in [4], 30.2 fold; in experiment [5], 28.2 fold.
